Results reported in the DeepSol protein solubility set.

Experiment: soluble on expression in E. coli; label from the status in PepcDB or PDB records

| Sequence | soluble on expression in E. coli |
| --- | --- |
| MSLEQTVDIEVQGIRGFRAVRNTDLNVNLINKEEMDGSERYQHLVTKAVDRGLRVFGYYESSVRFERKQRQGKRDLLIAHVTPGEPTKIAGTDVQIEGEAAQDENFNALRKNLPKDGVLVEHQTYDDYKTAISRLALNRGYFDGNFKISRLEISPETHQAWWRMLFDSGVRYHYGNITFSHSQIRDDYLNNILNIKSGDPYLMNNLSDLTSDFPSSNWFSSVLVQPNVNHKSKTVDVEIILYPRKKNAMELGVGFSTDGGVHGQIGWTKPWINSRGHSLRSNLYLSAPKQTLEATYRMPLLKNPLNYYYDFAVGWEGEKENDTNTRVLTLSALRYWNNAHGWQYFGGLRMRYDSFTQADITDKTLLLYPTVGFTRTRLRGGSFATWGDVQKITFDLSKRIWLSESSFIKVQASSAWVRTYAENHRVVARAEIGYLHTKGIEKIPPTLRFFAGGDRSVRGYGYKKIAPKNRNGKLVGGSRLLTTSLEYQYQVYPNWWAATFADSGLAADNYTAKELRYGTGVGVRWASPVGAIKFDIATPIRDKDNSKNIQFYIGLGTEIEGHHHHHH | not soluble |
| MSLERLNKPSAPRYSRLREWVVGCAPNDLVVVKFGGSVLNGSPGFLAAGRLVLGLLESGLEPVVVVSAVKGVTDALLSSFERRDPGVGGAVGKTYLSIARELGLPPESVRDVSLASAEVSKLLWAAEVLGQWTPRVRDLVVSYGERLSAALMAGLLRRLGVEARWLGGGEAGIVTDGEFGDATPLYGYTEGVIRERLEPMLEEGVVPVVAGFTGATREGDTTLLGRGGSDLTATLLASALGAGRVVLYTDVPGILSGDPRVVGEPRRVGYMSYEEAWEVARLGLRKFHPRTFEPLIAGGLGVEVVVSDLRGRSTRIGPGRGGPPLKVVSLSRGVARLVVRGPSMAGKRGFLSRLAGLLAGRGVNILAIRQPPSETAIELVVDERDLPAAVEELGARSGAAGVRLEVERGFDVVSIVGWGAVEALPEALSAAEKTGGRLLSTGELSPSISILARGRTSPELARLLHRRVVESWVTGEGHHHHHH | not soluble |
| MSLESPELKALVDAGKLPAVEKRLPKEPLVLTPLESVGTYGGTWRTATFGGGDSEIERSIGYTRLVRWNPEWTEVIPDIAKSVEVNDNATEYTFTLREGTRWSDGEPFTADDLVWWNENVLRNTKITPAAPNWLTAGGETVKVEKLADDKVIFKFAAPNGLFLMNMATVRGSDILAAAPAHYLKQFHKDFNPDGIDALVKAAGATDWVQLFNNKIGFPGRWRDLGRPTLDAWVLTAPYNGTTQVVGERNPYYAKVDTAGNQLPYFDRITIDVMQDTQAIILKAISGEIDMQNRFIETTDARTVIVQNQEKGGYGLFIARPAWSNALLITLNQTHKNPALRAVFSNKDFRIGLSYAINREELNQLIYAGQAKPYQAAPREGTALYDEKMATQYLEYNVDLANQYLDKAGLTKHDAEGYRLGQDGKRITFAIDALTGSPIQVDALEMIQRYWRAVGIDMQPRPAERSLIFSRLQNNENDGLGWVGGGGYDFLGLLDPKWYFPHEYESSFATAWGLYYQNPKDPNAQEPSPAAKKQMDLYRQVQEAPTLEKQLAAMKELLAITRDEFYVIGTNLEPDRVGIVKTNMRNVPKVIPSTSFYMTPGPAKPETFYYQQEGHHHHHH | soluble |
| MSLETELPQAQDGSVRLLQITDTHLFASAEGRLLAVRTAESLAAVLERVQANDHPFDLILATGDLSQDHSPESYQRFASMMAPLARPIYWLPGNHDDGPLMTEYLHAAGISEAKQLVGEHWQVILLDTQVRGKPHGVLGDHQLAALDQALRQHPERHALIALHHQAVPVGCAWLDQHNLKPTTLFAVLARHPQQKTILFGHVHQEFDETAGMRLIASPSTCIQFKPLSDGLRAGREGHHHHHH | not soluble |
| MSLFFSLPYRFNVLSVVIASIPTLAFPTTFSDSTFFHKDWEIVCDNTLTCRAAGYSPEEKGMGEDTGTQDVSLLITRHAGQNTPITAEVTLAEVDKEIPKGTRLTLAIDGVDKGVLTSTEDNLWQLNETQIPAVLQALKGRGKVAFLHDGMVSELSGAGAYAVLLKMDERQGRIGTTDAITKKGNKSSELSAVAAPVIYAAATSQEPSRNLTNAEQAAIQKKLLKTLKEDDCYDFPPQEERVAEPMMITPLNGSMSLLSTLCWRAAYNEGYAYWVIDNAMQTQPQLMTTIGVGYENGEITAVQKGRGLADCMSDSAWVWDGKTFQQSRASITGSCRMIRLGGTWDLPYWTATVIRPGKEGHHHHHH | soluble |
| MSLFINMYRQLLSLPLSALVKNNPIPANPIEELSLNIHQPIVYVLPYTSQTDFVIFRRNCLALGLPDPAEKNEINGVKLPRYVYLDEGRRIFKSKGAKDETTTIFNKYLELHRTSESLDVQLIPVSVLWGRSPGQEDKSDLPNLRLLNGIQKTFAAIWFGRDTFVRFSQAVSLRYMVVEHGSDEKIAQKLARVAKMHFAKQRISATGPRLPNRQAMFNKLLQSEAIRRAIEDEAKSKNISIEKAQKEAYKILDEIAADVSHSSLRAVDRFLRWLWNKLYSGINVQNSNRVRKLALEGHEIVYVPCHRSHIDYLLLSYVLYHQGLVPPHIAAGINLNFWPIGRMFRSWGAFFIRRTFKGNRLYSAIFREYLSELFHRGYSVEYFIEGGRSRTGRLLAPKTGMMSMTLQALQHSQTRPISIVPVYVGYEHVLEVDTYAKELRGAAKEKENAGLVLRVIKKLRNLGQGFVNFGEPITLSNYLSQHFPDWKEQNHEEKPQWFTPAVNNISKQVMININKAAAVNSMNLVGTALLSSRQRALSREQLLEQLSSYQQLLQNVPYSTDVVLPNVTPQAMLEHVLALDRIGVLIEKDNFGEIVRLERSSAVLMTYYRNNIQHLFVLPSLVASIILHYEAIQKDLLLDAIRKIYPFLQGELFLHFNEDELNVQIHQIINEFARQSVINSNDNFLSINKSKVRILQLWSAGMLEILQRYYITVTILQKQPAISRAELEKESQLVAQRLSVLHGINAPEFFDKAVFSSFIANLKEQRYFDESGYTVLDKIEELASTLSHLISTEICLTVKGTIEKSEDLSSEGHHHHHH | soluble |
| MSLFTNLVKMGKKLKNLTKKYQLNKEKIEKFITVRKRLTFLGERPSVVEKPVVVKFGGTSVRYAFEEALELVANLNENTRTIVVVSALAGVTDCLLRLANGDMSALLEIEEIHEELSQELDVQLDHLMYQLHKTLNSKSSFPSKEAFVDEIASFGERFSAELFSEGLKILGINAKAVDSKDILFAKGDYGNAEVDFKKSVYGAGILYRMLRRGIVPVVTGYYGNLNGFRATFGRGGSDYSATSIARLVNAKATLIMSDVEGIYTADPKLVPSAKLIHYISYREAKIAAKLGMKALHHRAIDPVEGRIPVILGKTRDLKFGTLISHKSQGIPVVVHKLIEDHAEVSVVSTRRSFSLPYEVYEEGDFYFKIKIPKEQFLEVLKDIHRRVVENESLRPSYDSELWAWVEGHHHHHH | not soluble |
| MSLGAMKRLALLVPERANIASLENARQGFLAANGFLRERGCAPRFDVRLVAATPQVRLDHGRITVQADTVLEAVGEVDLCVVPPIQGDPQPALQENGALIDWLAGYYKNGGEVASLCVGAALLAAGGVLDGQRAVVHWAAQSDFGRLFPAVRWVSDRVVLEANGIYTSGGAFSAAHLVLHLVDKYTDRETAIWCAKLFQLDWSREGHHHHHH | soluble |
| MSLGDGNVEVAIIAYPYMSNFNEFYALVKSNARVSFVRKPKETAKADLVILPGSRNTLESLKWLVENGFVEQLRQRSMNILGICGGFQILGKKIVDPYGIEAGYPTEYEGLGIFDINVHYSKDKVVSMTTGISEYGEMNGYEIRRGVIKYMGEKPLLKITLRNGEKVSVEDGAKKDNIIGISVHGTLFSDGMKKLLKEFNINIHSQSMEEGHHHHHH | soluble |
| MSLGDLEQKIIAMDLWHLALPVVSARDHGIGRVEGSCEIVVLRLVAEGGAEGFGEASPWAVFTGTPEASYAALDRYLRPLVIGRRVGDRVAIMDEAARAVAHCTEAKAALDSALLDLAGRISNLPVWALLGGKCRDTIPLSCSIANPDFDADIALMERLRADGVGLIKLKTGFRDHAFDIMRLELIARDFPEFRVRVDYNQGLEIDEAVPRVLDVAQFQPDFIEQPVRAHHFELMARLRGLTDVPLLADESVYGPEDMVRAAHEGICDGVSIKIMKSGGLTRAQTVARIAAAHGLMAYGGDMFEAGLAHLAGTHMIAATPEITLGCEFYQASYFLNEDILETPFRVEAGQVIVPDGPGLGARADPEKLEHYAVRRSGEGHHHHHH | soluble |
| MSLGEAEARVVLNMNTGWAFHRGEVESGGQPGLDDSGWIAAIIPHIMQLEKKHCGGDIIYDGVGWYRRTFRVPSQYKDKQIKISFEGVMNACEVYLNGQKISAHRGGYVGFVTDITTRINWDRDNLLAVRVSAEYDPLTPPGKPQAGMDFYYYSGIYRDVEMVISDPLHITHALEEEEVAGGGIFVTYPVVGKEKAVTHVKAHVRNEGKRKRKAQLRTQLIDKSGKIVACQLTPFRLSAGEAIHLEQNLEIVHPSLWHPYDPNLYTLQNEIVENGKVVDCHTESIGIRTIAYTRDGGFYINGESLYLRGANRHQAFAHIGDAAANSMQERDVIDLKRGGCNAVRAAHYPQDPAFLAACDKYGLLVVECIPGWQYFKNDSTFISRLYEVGKQMIRRDRNHPSVILWETALNESRYPAEIARNLYAIAHIEYPGDQMYTAGDYFGHADRVDCFDVFYKQVSRFPKDGDVMSNYPEDQIAVKPLFCREWGDGVGEKPRVSLMENEEEQLKQCRGRFLQLNGHGYFDWCMLDANPRMGGHFLWSYNDYARGAEQETMFCGIVDINRYPKFSYYMMQSMRDKEISQEGHHHHHH | soluble |
| MSLGETAGKLPRKPTLGPETAGATLVIPGETDRLASLYARAQAEGGKVVLWAGGDAPNQMDWLKTAFESRFPGVTLDVTVDLSKFHDLRIDQELAAGTLTPDVAMLQTTFDFDKWKARDVLLRYKPVGFARQKKGYADPDGAYVTAYNNAFVPTYASVRLPAERYPTRFADYLKPAFKGKLVLTYPHDDDAVLYVYDKLERRYGSGFLRALAAQKPNFLRGTAAPAASVGADSIGSLGNLTGYATDSDTPAGYFIPTDEPFIVWNQRAAIFKAARHPATAKLLLSYLGSAEFQSSYGGWRARADVGEAPGLPPLESLKNVDVHDFTRWMTDRQRVASLRRHMAEIFGPVRGESPLRDPALMSLLGLTANDIVALPEPDLPIYEGHHHHHH | soluble |
| MSLGFFNKLRQLAEDGTKMAQDGYARFNNAAFADATMAACALIGAADGQIDSQERSRTAQFITSSDKLRTFDVSKLREKYERYCDVISRDFDFGKIELMQVIGKVRKPEEARAVVQLAVVIANADGDFDAREQAVMREVIHALGLSPAEFGEGGSHHHHHH | soluble |
| MSLGIENDRKLVVNCLPLTEAERAQFTRAAKGMPQEFVGDPAQRGSMNWTAEIPDELKAYATAVIGNITPETCAQCPRLEWLQTWSAGVDKYQHPGILQPGSMLTNATGAYGQSVSEHMFAMMWAIMKNLHIYAVGNPNAAWQDAGRVISPDGKTALIIGTGDIGSHFARLCKSVGMSTIGIRRNPTVEAPGIDHMVGFESLDDVLQYADVIAMCVPSTPSTHHLLNAERIAKLKTDATVINAGRGDAIDTQALADALANGMIRGAGLDVTEPEPLPAASPLWSEPKCLITPHVAGGNHLESTERRIIAIALGNVRCYANGQSLDNRMPLKGEGHHHHHH | soluble |
| MSLGIPLSQLIVESPKPLSSGITGLDEILNLGFQARSIYEIFGPPGIGKTNFGIQLVCNSLEGIQQSEINDDKILWIETFQEMPINILRERFQKFKIVEENVKRVRITKFGQLLYFFQNLFKLSQSVRYKLVIIDGFSQLVCDHLCTLSKRGGGMIDKTIHELKCRHLILIFTVMTKYTHSTGSTIIVLNDCMNTAFQSNEFESLEEYYEILDDGSNFFVNSNNERRKNNVHILKSALVANIAMGSKDSTWEVFLRDRIGLFRDWNEQVDETVFVKSKRVKASSSQSNEGCTTIKEMRINKRNFENLRIAIVFNLHGEDRKREGRNLKRSRSSDDRNYIVKFDFDKATGQLRDIIDLKPDTANIASFPTLSTSSSSCSQVFNNIDSNDNPLPNAEGKEEIIYDSEG | not soluble |
